Source: the RNAGym collection of RNA variant scans (doi:10.7554/elife.80360)

B1: Hairpin Ribozyme (parent)
chain: GUCCUCUUUCACGUGCGCGUGAAAGAGAGAAGUGAACCAGAGAAACACACGUUGUGGUAUAUUACCUGGUA

Variants of: B1
Assay: self-cleavage, relative activity (ratio to wild type); higher = more cleavage; co-transcriptional

Variant	self-cleavage
C37G G56A	0.204
C37A C46G	0.0923
C37A C46A	0.179
A36C A59C	0.0815
A36C A49U	0.203
C38U U70A	0.522
A39C A71U	0.136
A39C A71G	0.248
A36G G42U	0.227
A36U G57C	0.172
C37U G56A	0.156
C38U U62G	0.124
C38A C50U	0.15
C38A C50A	0.0919
C38G A61U	0.227
C38G A61G	0.166
C37U A61U	0.248
C37U A61G	0.126
C37U A61C	0.146
A36C A64G	0.281
A36C G42C	0.245
C37A G69A	0.434
C37U U53C	0.808
C38U A49U	0.137

Variant	self-cleavage
C38U A49G	0.343
C38U A47U	0.151
A36C U55G	0.174
A36C U55A	0.243
C38U G51U	0.774
C38U G51A	0.786
C37G A71G	0.341
C38U C65U	0.12
C37G U62A	0.153
C38U A44G	0.0449
A36U A41G	0.476
A36C U58A	0.391
A36C U58C	0.685
C37G G40A	0.0652
A39C U60G	0.33
A39C U60A	0.359
A39C U60C	0.784
C37G G51C	0.469
C37A G51A	0.535
A36U U62C	0.185
C37A C65A	0.259
C37A C65U	0.261
A36C A45U	0.124
C37U G42U	0.27

Variant	self-cleavage
C38U G57U	0.175
C37U C46A	0.121
C37U C46G	0.13
C37G U55A	0.226
C37G U55C	0.178
C37A G54C	0.114
C37A G54U	0.269
C37A G54A	0.187
A39C A41U	0.406
A36U G56U	0.21
C37U G51C	0.689
C37U G51A	0.967
C38G G68C	0.591
C37A U52A	0.484
C38U U52G	0.261
C38U U52A	0.509
C37U A45G	0.0764
C38G U63C	0.178
C37G C38U	0.128
A36C U53G	0.371
A36C U53A	0.635
A39C U67C	0.149
C37A C48A	0.189
C37U A39U	0.208

Variant	self-cleavage
C37A G56C	0.174
C38A U70G	0.141
C38A U70C	0.115
A36G A41U	1.31
C38G G42U	0.172
C37U A41U	0.969
A36G U70G	1.03
C38U U55A	0.168
C38A U62C	0.0746
C38G A43G	0.171
C37A A45U	0.169
C37G U53A	0.245
C38U G54A	0.269
C37G G68U	0.189
C38A A71G	0.249
A36C G69C	0.304
C38G A39C	0.146
C38G A39G	0.117
C38A C46U	0.187
A36C A61U	0.162
C38G U60C	0.233
A36C C65G	0.3
A36U A61C	0.196
A36G C38G	0.127

Variant	self-cleavage
A36U G68C	0.129
A36U G68A	0.106
A39C C46U	0.103
A39C C46A	0.191
A39C C46G	0.13
C37A U60C	0.337
A36C C66G	0.131
C38A A45C	0.234
A36U A64U	0.165
C37U A47U	0.177
C37U A47G	0.167
C38U A59G	0.194
A36C U70C	0.607
A39C G40A	0.112
A39C G40U	0.0957
A36U C65G	0.106
A36G A39C	0.218
A36C G56A	0.09
A36C G56C	0.186
A36C G56U	0.216
C37A G42A	0.124
A36G C46U	0.189
C37G A64U	0.192
C37G A64C	0.136

Variant	self-cleavage
A36U U53G	0.224
C37A U55C	0.1
C38A C65A	0.198
C37A C38G	0.31
C38A U60G	0.218
A36U C48A	0.0449
C38A G40U	0.23
C38A G40C	0.103
C38U C46U	0.0928
C37A A64G	0.187
C38U C48U	0.174
C38U C48G	0.123
C37G A47G	0.15
C37G G54C	0.149
A39C C65A	0.233
C37U G68C	0.139
C37U G68U	0.193
C37A A59G	0.241
C37A A59U	0.0631
C37A A59C	0.137
A36G U55C	0.324
A36G U55G	0.271
A36C A44G	0.157
A36C A44U	0.307

Variant	self-cleavage
A36C A44C	0.122
A39C A64U	0.16
A39C A64G	0.0974
C38U A39G	0.3
C38U A39U	0.185
C38G A49U	0.137
A39C A59C	0.114
A39C A59U	0.172
A39C A59G	0.126
C37A U67C	0.0944
A39C A44C	0.17
C38G C65U	0.0351
A39C U53G	0.207
C38A A61G	0.258
C38A A61C	0.174
C38A U55C	0.116
C38G A71U	0.138
C38G A71G	0.172
A39C G57A	0.215
A36U A39U	0.171
C37U U63G	0.172
A36G U67C	0.335
A36U G42C	0.234
